# Data taken from patent US20200079833A1 (AstraZeneca / MedImmune, published 2020).
# Starred links: 1 amine or outer side, 2 acyl side, 3 side chain; linkers in the order of their positions; H or OH if unused. Non-standard residues stand in square brackets, D forms with d. Groups on a side chain read outwards from the residue. Primed or numbered codes have the meaning given here. No end group written: not given here. *: point of attachment. γGlu = O=C(O)[C@H](CCC(=O)[*:2])N[*:1]; Stearoyl = CCCCCCCCCCCCCCCCCC(=O)*; αMeF = C[C@](N)(Cc1ccccc1)C(=O)O; αMeK = C[C@](N)(CCCCN)C(=O)O; αMeS = C[C@](N)(CO)C(=O)O; PEG2′ = not defined here; Aib = CC(C)(N)C(=O)O; Ahx = NCCCCCC(=O)O
# T1: glucose-dependent insulinotropic peptide (gastric inhibitory polypeptide) receptor (GIPR) (human, UniProt P48546 22-466)
# T1 sequence (looked up): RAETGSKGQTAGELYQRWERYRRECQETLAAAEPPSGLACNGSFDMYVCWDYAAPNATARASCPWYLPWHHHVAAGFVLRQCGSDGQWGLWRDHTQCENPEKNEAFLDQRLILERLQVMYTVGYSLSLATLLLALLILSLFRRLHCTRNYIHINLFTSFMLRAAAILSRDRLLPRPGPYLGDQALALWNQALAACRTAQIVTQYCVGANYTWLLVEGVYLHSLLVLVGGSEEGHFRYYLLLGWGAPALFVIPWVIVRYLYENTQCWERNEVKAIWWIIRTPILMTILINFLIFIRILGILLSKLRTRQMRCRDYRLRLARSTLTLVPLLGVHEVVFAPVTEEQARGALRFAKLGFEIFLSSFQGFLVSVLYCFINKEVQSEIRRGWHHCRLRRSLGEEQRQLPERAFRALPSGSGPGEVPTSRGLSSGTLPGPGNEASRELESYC
# B1: SEQ ID NO 151 (peptide)
# peptide: H[Aib]EGS[αMeF]TSDV[αMeS]S[αMeF]LEGEAAK([Ahx-Ahx-Ahx-Stearoyl])E[αMeF]IA[αMeF]VV[αMeK]GG-NH2
# modifications: N-terminus assumed
# SMILES: CCCCCCCCCCCCCCCCCC(=O)NCCCCCC(=O)NCCCCCC(=O)NCCCCCC(=O)NCCCC[C@H](NC(=O)[C@H](C)NC(=O)[C@H](C)NC(=O)[C@H](CCC(=O)O)NC(=O)CNC(=O)[C@H](CCC(=O)O)NC(=O)[C@H](CC(C)C)NC(=O)[C@](C)(Cc1ccccc1)NC(=O)[C@H](CO)NC(=O)[C@](C)(CO)NC(=O)[C@@H](NC(=O)[C@H](CC(=O)O)NC(=O)[C@H](CO)NC(=O)[C@@H](NC(=O)[C@](C)(Cc1ccccc1)NC(=O)[C@H](CO)NC(=O)CNC(=O)[C@H](CCC(=O)O)NC(=O)C(C)(C)NC(=O)[C@@H](N)Cc1c[nH]cn1)[C@@H](C)O)C(C)C)C(=O)N[C@@H](CCC(=O)O)C(=O)N[C@@](C)(Cc1ccccc1)C(=O)N[C@H](C(=O)N[C@@H](C)C(=O)N[C@@](C)(Cc1ccccc1)C(=O)N[C@H](C(=O)N[C@H](C(=O)N[C@@](C)(CCCCN)C(=O)NCC(=O)NCC(N)=O)C(C)C)C(C)C)[C@@H](C)CC
# B2: SEQ ID NO 148 (peptide)
# peptide: H[Aib]EGS[αMeF]TSDV[αMeS]S[αMeF]LEGEAAK([γGlu-γGlu-γGlu-Stearoyl])E[αMeF]IA[αMeF]VV[αMeK]GG-NH2
# modifications: N-terminus assumed
# SMILES: CCCCCCCCCCCCCCCCCC(=O)N[C@@H](CCC(=O)N[C@@H](CCC(=O)N[C@@H](CCC(=O)NCCCC[C@H](NC(=O)[C@H](C)NC(=O)[C@H](C)NC(=O)[C@H](CCC(=O)O)NC(=O)CNC(=O)[C@H](CCC(=O)O)NC(=O)[C@H](CC(C)C)NC(=O)[C@](C)(Cc1ccccc1)NC(=O)[C@H](CO)NC(=O)[C@](C)(CO)NC(=O)[C@@H](NC(=O)[C@H](CC(=O)O)NC(=O)[C@H](CO)NC(=O)[C@@H](NC(=O)[C@](C)(Cc1ccccc1)NC(=O)[C@H](CO)NC(=O)CNC(=O)[C@H](CCC(=O)O)NC(=O)C(C)(C)NC(=O)[C@@H](N)Cc1c[nH]cn1)[C@@H](C)O)C(C)C)C(=O)N[C@@H](CCC(=O)O)C(=O)N[C@@](C)(Cc1ccccc1)C(=O)N[C@H](C(=O)N[C@@H](C)C(=O)N[C@@](C)(Cc1ccccc1)C(=O)N[C@H](C(=O)N[C@H](C(=O)N[C@@](C)(CCCCN)C(=O)NCC(=O)NCC(N)=O)C(C)C)C(C)C)[C@@H](C)CC)C(=O)O)C(=O)O)C(=O)O
# B3: SEQ ID NO 147 (peptide)
# peptide: H[Aib]EGS[αMeF]TSDV[αMeS]S[αMeF]LEGEAAK([γGlu-γGlu-Stearoyl])E[αMeF]IA[αMeF]VV[αMeK]GG-NH2
# modifications: N-terminus assumed
# SMILES: CCCCCCCCCCCCCCCCCC(=O)N[C@@H](CCC(=O)N[C@@H](CCC(=O)NCCCC[C@H](NC(=O)[C@H](C)NC(=O)[C@H](C)NC(=O)[C@H](CCC(=O)O)NC(=O)CNC(=O)[C@H](CCC(=O)O)NC(=O)[C@H](CC(C)C)NC(=O)[C@](C)(Cc1ccccc1)NC(=O)[C@H](CO)NC(=O)[C@](C)(CO)NC(=O)[C@@H](NC(=O)[C@H](CC(=O)O)NC(=O)[C@H](CO)NC(=O)[C@@H](NC(=O)[C@](C)(Cc1ccccc1)NC(=O)[C@H](CO)NC(=O)CNC(=O)[C@H](CCC(=O)O)NC(=O)C(C)(C)NC(=O)[C@@H](N)Cc1c[nH]cn1)[C@@H](C)O)C(C)C)C(=O)N[C@@H](CCC(=O)O)C(=O)N[C@@](C)(Cc1ccccc1)C(=O)N[C@H](C(=O)N[C@@H](C)C(=O)N[C@@](C)(Cc1ccccc1)C(=O)N[C@H](C(=O)N[C@H](C(=O)N[C@@](C)(CCCCN)C(=O)NCC(=O)NCC(N)=O)C(C)C)C(C)C)[C@@H](C)CC)C(=O)O)C(=O)O
# B4: SEQ ID NO 146 (peptide)
# peptide: H[Aib]EGS[αMeF]TSDV[αMeS]S[αMeF]LEGEAAK([γGlu-Stearoyl])E[αMeF]IA[αMeF]VV[αMeK]GG-NH2
# modifications: N-terminus assumed
# SMILES: CCCCCCCCCCCCCCCCCC(=O)N[C@@H](CCC(=O)NCCCC[C@H](NC(=O)[C@H](C)NC(=O)[C@H](C)NC(=O)[C@H](CCC(=O)O)NC(=O)CNC(=O)[C@H](CCC(=O)O)NC(=O)[C@H](CC(C)C)NC(=O)[C@](C)(Cc1ccccc1)NC(=O)[C@H](CO)NC(=O)[C@](C)(CO)NC(=O)[C@@H](NC(=O)[C@H](CC(=O)O)NC(=O)[C@H](CO)NC(=O)[C@@H](NC(=O)[C@](C)(Cc1ccccc1)NC(=O)[C@H](CO)NC(=O)CNC(=O)[C@H](CCC(=O)O)NC(=O)C(C)(C)NC(=O)[C@@H](N)Cc1c[nH]cn1)[C@@H](C)O)C(C)C)C(=O)N[C@@H](CCC(=O)O)C(=O)N[C@@](C)(Cc1ccccc1)C(=O)N[C@H](C(=O)N[C@@H](C)C(=O)N[C@@](C)(Cc1ccccc1)C(=O)N[C@H](C(=O)N[C@H](C(=O)N[C@@](C)(CCCCN)C(=O)NCC(=O)NCC(N)=O)C(C)C)C(C)C)[C@@H](C)CC)C(=O)O
# B5: SEQ ID NO 149 (peptide)
# peptide: H[Aib]EGS[αMeF]TSDV[αMeS]S[αMeF]LEGEAAK([Ahx-Stearoyl])E[αMeF]IA[αMeF]VV[αMeK]GG-NH2
# modifications: N-terminus assumed
# SMILES: CCCCCCCCCCCCCCCCCC(=O)NCCCCCC(=O)NCCCC[C@H](NC(=O)[C@H](C)NC(=O)[C@H](C)NC(=O)[C@H](CCC(=O)O)NC(=O)CNC(=O)[C@H](CCC(=O)O)NC(=O)[C@H](CC(C)C)NC(=O)[C@](C)(Cc1ccccc1)NC(=O)[C@H](CO)NC(=O)[C@](C)(CO)NC(=O)[C@@H](NC(=O)[C@H](CC(=O)O)NC(=O)[C@H](CO)NC(=O)[C@@H](NC(=O)[C@](C)(Cc1ccccc1)NC(=O)[C@H](CO)NC(=O)CNC(=O)[C@H](CCC(=O)O)NC(=O)C(C)(C)NC(=O)[C@@H](N)Cc1c[nH]cn1)[C@@H](C)O)C(C)C)C(=O)N[C@@H](CCC(=O)O)C(=O)N[C@@](C)(Cc1ccccc1)C(=O)N[C@H](C(=O)N[C@@H](C)C(=O)N[C@@](C)(Cc1ccccc1)C(=O)N[C@H](C(=O)N[C@H](C(=O)N[C@@](C)(CCCCN)C(=O)NCC(=O)NCC(N)=O)C(C)C)C(C)C)[C@@H](C)CC
# B6: SEQ ID NO 150 (peptide)
# peptide: H[Aib]EGS[αMeF]TSDV[αMeS]S[αMeF]LEGEAAK([Ahx-Ahx-Stearoyl])E[αMeF]IA[αMeF]VV[αMeK]GG-NH2
# modifications: N-terminus assumed
# SMILES: CCCCCCCCCCCCCCCCCC(=O)NCCCCCC(=O)NCCCCCC(=O)NCCCC[C@H](NC(=O)[C@H](C)NC(=O)[C@H](C)NC(=O)[C@H](CCC(=O)O)NC(=O)CNC(=O)[C@H](CCC(=O)O)NC(=O)[C@H](CC(C)C)NC(=O)[C@](C)(Cc1ccccc1)NC(=O)[C@H](CO)NC(=O)[C@](C)(CO)NC(=O)[C@@H](NC(=O)[C@H](CC(=O)O)NC(=O)[C@H](CO)NC(=O)[C@@H](NC(=O)[C@](C)(Cc1ccccc1)NC(=O)[C@H](CO)NC(=O)CNC(=O)[C@H](CCC(=O)O)NC(=O)C(C)(C)NC(=O)[C@@H](N)Cc1c[nH]cn1)[C@@H](C)O)C(C)C)C(=O)N[C@@H](CCC(=O)O)C(=O)N[C@@](C)(Cc1ccccc1)C(=O)N[C@H](C(=O)N[C@@H](C)C(=O)N[C@@](C)(Cc1ccccc1)C(=O)N[C@H](C(=O)N[C@H](C(=O)N[C@@](C)(CCCCN)C(=O)NCC(=O)NCC(N)=O)C(C)C)C(C)C)[C@@H](C)CC
# Target: GLP-1 receptor (GLP-1R) (human, UniProt P43220 24-463)
# Assay: cell-based or functional assay
cAMP Mean pM GLP-1R,cAMP Primary assay EC50 GLP-1R n1,cAMP Primary assay EC50 GLP-1R n2,Binder
18.2 pM,0.022 nM,0.015 nM,B1
12.1 pM,0.016 nM,0.0087 nM,B2
23.2 pM,0.032 nM,0.014 nM,B3
69 pM,0.096 nM,0.042 nM,B4
34.7 pM,0.039 nM,0.031 nM,H[Aib]EGS[αMeF]TSDV[αMeS]S[αMeF]LEGEAAK([PEG2′-Stearoyl])E[αMeF]IA[αMeF]VV[αMeK]GG-NH2 [SEQ ID NO 152]
66.2 pM,0.081 nM,0.051 nM,B5
25.4 pM,0.028 nM,0.022 nM,B6

# Target: glucagon receptor (GCGR) (human, UniProt P47871 26-477)
# Assay: cell-based or functional assay
# Chain of glucagon receptor (GCGR) (P47871 26-477): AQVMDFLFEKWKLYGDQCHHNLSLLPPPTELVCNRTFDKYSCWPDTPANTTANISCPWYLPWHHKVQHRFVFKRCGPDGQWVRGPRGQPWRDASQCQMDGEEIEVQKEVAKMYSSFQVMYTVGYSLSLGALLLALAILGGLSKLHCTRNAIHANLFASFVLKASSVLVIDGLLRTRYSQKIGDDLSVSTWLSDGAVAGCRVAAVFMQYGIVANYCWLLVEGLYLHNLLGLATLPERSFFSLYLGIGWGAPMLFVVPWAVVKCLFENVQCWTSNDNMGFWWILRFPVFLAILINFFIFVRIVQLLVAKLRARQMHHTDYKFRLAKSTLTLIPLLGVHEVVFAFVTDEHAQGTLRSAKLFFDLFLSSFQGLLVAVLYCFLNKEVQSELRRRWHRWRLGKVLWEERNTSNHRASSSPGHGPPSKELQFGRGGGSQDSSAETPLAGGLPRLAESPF
cAMP Primary assay EC50 Gluc-R,cAMP Primary assay EC50 Gluc-R (2nd),Binder
26 nM,26 nM,B1
26 nM,26 nM,B2
27 nM,27 nM,B3
28 nM,28 nM,B4
28 nM,28 nM,H[Aib]EGS[αMeF]TSDV[αMeS]S[αMeF]LEGEAAK([PEG2′-Stearoyl])E[αMeF]IA[αMeF]VV[αMeK]GG-NH2 [SEQ ID NO 152]
28 nM,28 nM,B5
27 nM,27 nM,B6

# Target: T1, glucose-dependent insulinotropic …
# Assay: cell-based or functional assay
cAMP Primary assay EC50 GIP-R,cAMP Primary assay EC50 GIP-R (2nd),Binder
26 nM,26 nM,B1
26 nM,26 nM,B2
27 nM,27 nM,B3
28 nM,28 nM,B4
28 nM,28 nM,H[Aib]EGS[αMeF]TSDV[αMeS]S[αMeF]LEGEAAK([PEG2′-Stearoyl])E[αMeF]IA[αMeF]VV[αMeK]GG-NH2 [SEQ ID NO 152]
28 nM,28 nM,B5
27 nM,27 nM,B6
